Tested on: K4 kissing-loop RNA reporter
Test: apparent KD of K4 kissing-loop reporter; higher = weaker reporter binding
Settings: Eterna round: R107
Experimental: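 RNA-MaP round R107: designed RNA switches with theophylline, tryptophan, arginine or FMN aptamers are transcribed on-chip within common flanks. They are titrated with a labelled K4 kissing-loop RNA reporter in RNA-MaP buffer (100 mM Tris pH 7.5, 80 mM KCl, 4 mM MgCl2), without ligand or with the indicated ligand. Median apparent KD per design.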

[1] = input ligand: theophylline 20 uM
[2] = input ligand: tryptophan 2.4 mM
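Note: bound reporter read as fluorescence of individual clusters on recovered sequencing chips by microscopy, with normalized cluster intensities fitted with a binding model.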

Row | Sequence | apparent KD of K4 kissing-loop reporter (input ligand: FMN 200 uM) [nM] | apparent KD of K4 kissing-loop reporter (input ligand: arginine 13.2 mM) [nM] | apparent KD of K4 kissing-loop reporter (input ligand: none) [nM] | apparent KD of K4 kissing-loop reporter [1] [nM] | apparent KD of K4 kissing-loop reporter [2] [nM]
1 | AGGUUUUGAUUAGGAUAUGCACUGAGGAGGAGAAUAUAGUGAUGUUAUAUAAGAGGAAGGAGUAGAGUAGAAGGGAUUGAGGUUU [SSFMNB.R] | 249 | 164 | 199 | 172 | 188
2 | CUGGGUUGACGAAAAGUCAACAAACGAGAAGGAGCGCACGAAAGUGCAGGUAGGUCGCUCAGUCCAGUGAUGUUGGAACAUCCAG [#SwitchBubble 8 #K4Late] | 664 | 498 | 462 | 508 | 436
3 | UGAUACCAGACGGCCGCCACUCCCGCAGGUCAAAGACCUGCGAAGAUGGUUCUUCAGUGAUGUUGGAGGACCGGGUCUGGUAUCU [FiskerMod 23 - Jieux - Exclusion - Tryptophan B] | 173 | 128 | 137 | 140 | 314
4 | AGAGGAAAUAGAAGGAGCGGCGCCAGUGAUGUUGGAUGCCGCGGGUGAAUCAGGUCAUAGUGCCAGGUAGGUCGCUAUUUCAGCG [Larebeve] | 177 | 112 | 141 | 161 | 138
5 | ACCCGGGCCCGAAAGGGCCCGGGAAGAGAUACCAGCAGCGAAAGCUGCCCUUGGCAGCUCACUUAGUGAUGUUGAGAAUAGGGCG [#21 K4 Theophylline A Same State] | 657 | 221 | 554 | 299 | 225
6 | CAUGGGCCAGUGAUGUUGGCGCGCACGGGACGAGGACCGGUACGGCCGCCACUCGCUUUUGCUCUUAUCGGGAUAAGAAAACCGA [Enveerorle] | 453 | 134 | 567 | 309 | 635
7 | GACAUACCUAUGGAGGGCCGAUCGAUCAUACGAGGACCGGUACGGCCGCCACUCGUGGGCAGUGAUGUUGACCCUGGGAGGUAAG | 316 | 223 | 252 | 232 | 483
8 | GAAUUAUGUAGAAGGAGCGUUAGAAGGUAUAGGUGCGAGUGAUGUUUGGACUUGUUAAUUUGACAGGUAGGUCGCUACAGAAGGA [KL-SSArg B19 #analogue] | 496 | 281 | 499 | 379 | 451
9 | CAUACGCAUGGAGGAUAUGAGAUUACUCAUAUCAUUUAAUAUUCUCAGUGAUGUUGAGAUUUAGGCUCAGAAGGCCAUGUGUAUG [Ex FMN B 14] | 271 | 362 | 412 | 421 | 375
10 | GGCAGUGAUGUUGCCUAAGCAACGCAUGCAGAGGAUAUUCGUUCGGGAAGAAGGCUGCAGCGUUCUCUCGCGAGUGAUGUUCGCG [Same State FMN A GF 23] | 182 | 137 | 165 | 165 | 162
11 | UGUACCGAGUCAGGAUAUGACGACUAGUCAAAGACUGGUCGAAAAUCCAGUGAUGUUGGAAAUAAAUCAGAAGGGACUUGGUACU [FmnBS 16 #SwitchBubble #StaticStem] | 124 | 309 | 272 | 357 | 296
12 | AGUGAUGUAGUGUGUUGUUUGUGAAGUGAUCGAGGACCGGUACGGCCGCCACUCGAGUGAUGAGUGAGUGAUGUUUGUUUAGUGG [#18 K4 Tryptophan A Same State] | 379 | 283 | 376 | 412 | 303
13 | ACGUAGUACGUAGGAUAUCAGAGAUCAGUUAGUGAGAUCGAGUGAUGUUCGAUCAUGUGUUCAGUUUGAGAAGGAUGUAGUAGGA [KL-SSFMN-B5] | 214 | 280 | 355 | 408 | 198
14 | UGAUACCAGACGGCCGCCACUCCCGUAAGUCAAAGACUUACGAAGAGAGUUUUUCAGUGAUGUUGGAGGACCGGGUCUGGUAUCU [FiskerMod 16 - Jieux - Exclusion - Tryptophan B] | 838 | 618 | 870 | 850 | 721
15 | UUAUUGAGCGUUUGUGAGAAGGCGUUCUUCAAGGAUAUCGACGUAACGAGAAGGUGAUUCGUUCCGAGUGAUGUUCGGUACGGGC [theeternabot_sameState_KL_FMN_A_4] | 222 | 185 | 234 | 240 | 199
16 | CCGACUGCAGGAAGGAGCGGCGGUUGGAGUGAUGUUCCGGGUAGUGAUGUUACCAAGAUCCGCCAGGUAGGUCGCCUGUUGCUCG [Same State Arginine B GF11] | 134 | 117 | 129 | 122 | 120
17 | GAGAUAGAGGCGGCCGCCACUAGUGAUGUUGGUGAUGUUAGAUAGAGAAUAGAACGGGUACUCCCUAGGACCGGGCCAGAUGGAG [#04 K4 Tryptophan B Exclusion] | 63.8 | 34.9 | 58.5 | 49.4 | 53
18 | UUGAUAUGAUAAUAUCCUGUUUGAUAAAGACAGGAUAUAGAAAAUACUAGAAGGGUCAUUAUAUGCAGUGAUGUUGCAAAUAAGU [Exclusion FMN A Gf 23] | 42.2 | 67.3 | 45.7 | 66.2 | 37.6
19 | UUCAGUGAUGUUGAACACUGUUGUAUAAACUAGGAUAUGCUGAUAAGCAGAAGGAGUGAUGUUCCGUUCAUCAUCAGAAUUAAAU [KL-XFMN-A3] | 673 | 400 | 360 | 424 | 250
20 | AGUUCUUGCCGAAGGAGCGAGGCAGAGUGAUGUUCUGCAGAUGUCGAAAGACAUCAACUGCCUCAGGUAGGUCGCGGCAUGAACA [#05 K4 Arginine B Exclusion] | 114 | 74 | 99.6 | 87.3 | 108
21 | GGUAGCAUGGCGGCCGCCACUUAUGUUCACAUAGUGAUGUUAUGUUCACAUUUAUGGCCCUGCUUAAGGACCGGGCCAUGCUACC | 118 | 90.3 | 105 | 82.1 | 272
22 | UUUUAGGUAUCUGAUACCAGAGAAAAUAUAUGUAGUGAUGUUAUAUACAAAAUAAUUAAGCUCCCUUGGCAGCAGUAUUAAUUUU [AstrosExc-TheB#3] | 825 | 742 | 854 | 917 | 717

Row | Sequence | apparent KD of K4 kissing-loop reporter (input ligand: FMN 200 uM) [nM] | apparent KD of K4 kissing-loop reporter (input ligand: arginine 13.2 mM) [nM] | apparent KD of K4 kissing-loop reporter (input ligand: none) [nM] | apparent KD of K4 kissing-loop reporter [1] [nM] | apparent KD of K4 kissing-loop reporter [2] [nM]
23 | CUGGGUUGACGAAAAGUCAACAAACGAGAAGGAGCGCACGAAAGUGCAGGUAGGUCGCUCAGUCCAGUGAUGUUGGAUCAUCCAG [#SwitchBubble 9 #K4Late] | 265 | 763 | 687 | 840 | 323
24 | AGCUCAGAGUGACUCGAUAAGAGUCACAAACGAGGACCGGUACGGCCGCCACUCGAAAUAACGAGAGUGAUGUUCUCACUGAGCA [FiskerMod 11 - Jieux - Same State Tryptophan A] | 1150 | 635 | 1260 | 808 | 378
25 | AGUGAACGAGCGGCCGCCACUAACUGAGUGAUGUUCGUGAGUAGUGCUGUUCUCAUGAUUGUUUUUAGGACCGGGUUCGAUGUUG [ttbjmullin] | 483 | 329 | 391 | 431 | 360
26 | GACUCAUGUAGAAGGAGCGUCAGAAGCUACAGACAUGAGUGAUGUUCAUGUUAGUUGAUCUGACAGGUAGGUCGCUACAGCAGGA [KL-SSArg B14 #analogue] | 145 | 121 | 149 | 141 | 150
27 | UGAUACCAGACGGCCGCCACUGGGACCGGGAGUGAUGUUCCAAAUAAAAGAAACUCGGCCGCCACUAGGACCGGGUCUGGUAUCU [TrypBX 30 #DoubleAptamer #SwitchBubble] | 622 | 278 | 379 | 479 | 110
28 | GUAGACAGGCUGCGAACCUAGUCUACAGACUAGGAUAUCAGGAAACUGAGAAGGAGUCUAGUUGCAGUGAUGUUGCAAGAAUAAU [KL-SSFMN-A25] | 81.3 | 125 | 94.6 | 135 | 84.7
29 | GGAUUUGAGUGAUGUUUAAAACGAGUGUCCAAGGAUAUUGCCCAAACAAGAAGGUGGGCAUGCUUUUGCGAUAAUCAACGGAGAC [theeternabot_exclusion_KL_FMN_A_9] | 408 | 666 | 451 | 606 | 291
30 | UCGGACCCUGGAGGAUAUGAGUCUAGUGAUGUUAGGCGGUCCAUGCGCGUGGCGCGUUAUGCCCUUUUAGAAGGCCAGGGUCCGA [#2 Exclusion - FMN B Attempt #15 (HarryS)] | 113 | 72.4 | 104 | 90.7 | 84.6
31 | UUUUACGAGUGAUGUUCGUAAUGUAAUAGUUAGGAUAUCGUUUUUUCGAGAAGGAACUUCGAAGUGAUACGAAAGUAUCGCUUCG [FMN A 9] | 127 | 160 | 184 | 154 | 159
32 | AGCAUUAUCAGAAGGAGCGUGUAUAAAUCAAUAGUAUUGUAUUCGAGUGAUGUUCGUAAUACACAGGUAGGUCGCUGAUAUUGCA [JR_ExcArginiB_Sub002] | 182 | 172 | 170 | 175 | 161
33 | UUCUACGAGUGAUGUUCGUAGUGUAAUCGCUAGGAUAUCGUUUUUUCGAGAAGGAGCGUCGAAGUGAUACGAAAGUAUCGCUUCG [FMN A 13] | 151 | 258 | 300 | 284 | 284
34 | AAUAAAAUCACGGCCGCCACUGAAUAAUUGGUAAGUAGUGAUGUUACUUUACUUUUCUUAUUUAACAGGACCGGGUGAAUAUUUA [JR_ExcTryptoB_Sub009] | 104 | 83.4 | 98.5 | 88.2 | 123
35 | GAUUGUGAUGGAAACAUCGCAAUCUCUGAAGGAGCGCGUGAAAACGCAGGUAGGUCGCAGGACGACUAUGACAGUGAUGUUGUCG [Ex Arginine A K4 3] | 189 | 216 | 190 | 207 | 189
36 | UGUGUUUACCUGACUCAGUGAUGUUGAGAAGGAGCGUGCAAAGGCACAGGUAGGUCGCUCAACCUAAAUUCAGGUGAGCACUAAA | 246 | 331 | 240 | 310 | 217
37 | AAGUGAUGUUGUAGUGAUGUUGUGAUGUUGCAGGAUAUAUAGUGAUGUAGAAGGGUAUGUGCAGUUUUCUUUUUUGAGUGUUGAU [aavamullin] | 72.1 | 30.8 | 57.1 | 43.7 | 56.9
38 | UUAUAUAAUUUGUCUUUUUUAACAUUAAGUCAGGAUAUCGUAUAUUCGAGAAGGGACACAUGCUAGUGAUGUUAGCUAUUUCUUU [JR_ExcFMNA_Sub016] | 31.7 | 55.3 | 30.4 | 43 | 30.6
39 | GGUUUAUAGGAGGAUACCAGUACGGAUAAAGUACGUUAAUAGUAGAGUGAUGUUCUAAAGUACCCUUGGCAGCUUAGAUUAAGUU [ExTheophylB.J] | 72 | 142 | 106 | 110 | 64.4
40 | GCCGUACGCAUGGAUACCAGCAAUUAUGCUCGUGAUCUAGUGAUGUUAGUGGCGAAAGUUUGCCCUUGGCAGCCAUGCGUACGGC | 224 | 172 | 244 | 134 | 182
41 | UGUAUGGACUGAAGGAGCGGUAGAUAAACUGAGUGAUGUUCGGCAGAUAAAGGCGCAAGCCACCAGGUAGGUCGCAGUCCAUACU [KL-SSArg B3] | 381 | 274 | 391 | 408 | 342
42 | UAACUUGCAGUGAUGUUGCAAGAACUGGAUACCAGCAUGGAAACAUGCCCUUGGCAGCCAGAAGCUGGCUGACUGCAAGGUCAGC [Design4] | 148 | 142 | 124 | 136 | 123
43 | AAAUUUUCGAGUGAUGUUCGAAUAAUUUCAGAGGAUAUGCUUAAAAGCAGAAGGCUGUAUUACUAUUUGUUAUUAAAUUUUAUAA [JR_ExcFMNA_Sub001] | 106 | 110 | 96.7 | 105 | 86.2

— the supplement of paper PMC9170038
